Reference: patent US20240309076A1 (REGENXBIO, published 2024)
Blank lines part the entries; values can stand above or below the binder they belong to.

Biological target: Tau and AD-associated Tau in brain tissue and brain extracts of patients with tauopathy (AD, PSP, PiD) (human, UniProt P10636-8 2-441, limits assumed, pathologically hyperphosphorylated and aggregated; the sites are not specified)
Assay: cell-based or functional assay

Sequence of Tau and AD-associated Tau in brain tissue and brain extracts of patients with tauopathy (AD, PSP, PiD) (P10636 other isoform, or with tags, fused parts or gaps limits assumed): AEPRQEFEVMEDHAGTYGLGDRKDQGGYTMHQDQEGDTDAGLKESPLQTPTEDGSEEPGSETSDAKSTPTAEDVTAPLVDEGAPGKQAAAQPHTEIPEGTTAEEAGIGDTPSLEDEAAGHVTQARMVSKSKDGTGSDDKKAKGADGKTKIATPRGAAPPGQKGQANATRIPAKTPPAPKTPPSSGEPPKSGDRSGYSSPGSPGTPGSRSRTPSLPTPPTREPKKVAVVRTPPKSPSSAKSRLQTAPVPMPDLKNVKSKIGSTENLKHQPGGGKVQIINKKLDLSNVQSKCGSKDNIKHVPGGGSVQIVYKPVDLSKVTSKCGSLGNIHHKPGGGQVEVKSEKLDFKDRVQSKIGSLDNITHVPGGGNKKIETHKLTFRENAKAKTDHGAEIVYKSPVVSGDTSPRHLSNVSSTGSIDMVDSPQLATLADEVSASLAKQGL

IC50 of Tau aggregation (integrated FRET density) in HEK293T Tau biosensor cells after immunodepletion of AD brain homogenate: 7.1 µg/mL
B1: NI-502.8H1 (antibody, V domains shown)
VH: EVQLVESGGGLVQPGGSLRLSCAASGFTFSIYTMSWVRQAPGKGLEWVSAILSDGSTYYADSVEGRFTISRDNSKTTLYLQMNSLTAEDTAVYYCTKRVEGSFRGWGQGTLVTVSS
VL: EIVMTQSPGTLSLSPGESATLSCRASQSVSTTYLAWYQQKPGQAPRLLIYGASSRATGIPDRFSGSGSGTDFTLTISRLEPEDFAVYYCQQYGGSRLITFGQGTRLEIK

IC50 of Tau aggregation (integrated FRET density) in HEK293T Tau biosensor cells after immunodepletion of AD brain homogenate: 6.5 µg/mL
B2: NI-502.4P3 (antibody, V domains shown)
VH: EVQLVQSGAEVKKPGESLKISCKVSGYDFSKYWIGWVRQMPGKGLEWMGLIYPGDSDTRYSPSLEGQVSISADKSISAAYLQFSSLKASDSAMYYCVRKGYSAYLGGWFDPWGQGTLVTVSS
VL: DIQLTQSPDSLAASLGERVTINCRSSQNIFYNSNNKNFLAWYQQKAGQSPKLLIYWASTRESGVPDRFSGSGSGTDFTLTISGLQAGDVAVYFCQQYFTDAPTFGGGTKVEIK
